Tests used:
Type in all cases: cell-based
MC3T3-E1 cells = assay: Differentiation of osteoblast progenitor culture mass in biogel (ALP/ACP assay, ALP staining); conditions: day 3 and day 7
Description: Osteoblasts progenitor cells, MC3TC-E1 were mixed with the biogel prepared in Example 6, in amounts of […], and 100 μL of each of the resulting mixture solution was gelled using a casting gel, to consequently yield three-dimensional culture mass, each containing 7×10^3 and 1×10^5 cells. Then, the three-dimensional culture mass were three-dimensionally cultured for 7 days in osteoblast media, which were formed by adding 10 mM of β-glycerophosphate (Sigma Aldrich, USA), 50 μg/ml of ascorbic acid (Sigma Aldrich, USA), and 10 nM of dexamethasone (Sigma Aldrich, USA) to growth media supplemented with α-MEM (Welgene, Korea) supplemented with 10% fetal bovine serum (FBS) (Gibco, USA), 100 U/ml of penicillin (Welgene, Korea), and […] of streptomycin (Welgene, Korea). Thereafter, on day 3 and day 7 of culturing, differences in the expression level of ALP protein, which is an early osteoblast differentiation factor, were examined at different cell densities of culture mass, using ALP assay kit (Abcam, ab83369) and ALP staining kit (Sigma, P5869). […]
(§1) Subsequently, on day 3 and day 7 of culturing, the MC3T3-E1 cells were measured for the osteoclast differentiation marker ACP, and the RAW264.7 cells were measured for the osteoblast differentiation marker ALP, to determine the influence of their respective differentiation markers on each other.

RAW264.7 cells = assay: Differentiation of osteoclast progenitor culture mass in biogel (ACP/ALP assay, TRAP staining); conditions: RAW264.7 in biogel, 100 ng/ml Rankl, compared to control group (GM)
Description: 8-2. Culturing of Osteoclasts Osteoclast progenitor cells RAW264.7 were mixed with the biogel prepared in Example 6, in amounts of 5×10^5 cells/ml, 7×10^5 cells/ml, 1×10^6 cells/ml, and 3×10^6 cells/ml, and 100 μL of each of the resulting mixture liquids was gelled using a casting gel, to consequently yield three-dimensional culture mass, each containing 5×10^4 cells, 7×10^4 cells, 1×10^5 cells, 3×10^5 cells, and […]. Then, the three-dimensional culture mass were three-dimensionally cultured for 7 days in osteoclast media, which were formed by adding 100 ng/ml of Rankl to growth media containing α-MEM (Welgene, Korea) supplemented with 10% fetal bovine serum (FBS) (Gibco, USA), 100 U/ml of penicillin (Welgene, Korea), and […] of streptomycin (Welgene, Korea). Then, using ACP assay kit (Abcam, ab83367) and TRAP staining kit (Sigma, 181A), differences in the expression level of osteoclast differentiation factor were examined at different cell numbers. […]
as §1

[1] = system: MC3T3-E1 cells and RAW264.7 cells co-culture; assay: Differentiation in 3D co-culture mass in biogel (ALP and ACP assay, ALP and TRAP staining)
Description: In detail, after dissolving 0.5% agarose in 300 mM CaCl2 solution, the Phenol Red solution was added in an amount of 5 mg/L to produce a casting gel solution. Then, after introducing 5-5.5 ml of the casting gel solution into a casting tray, a three-dimensional semi-spherical casting mold was inserted in the casting tray, and after completely solidifying the casting gel solution, the casting mold was carefully removed to produce a three-dimensional semi-spherical casting gel mold. The biogel, 1×10^5 cells/ml of osteoblast progenitor cells MC3T3-E1, and 5×10^4 cells/ml of osteoclast progenitor cells RAW264.7, were introduced into the casting gel mold and subjected to gelation to yield a three-dimensional co-culture mass. Then, the co-culture mass was cultured in the following media: media treated only with an osteoblast differentiation induction factor (+3F); media only treated with an osteoclast differentiation induction factor (+R); and media treated with both osteoblast differentiation induction factor and osteoclast differentiation induction factor (+3F+R). Then, osteoblast differentiation profiles were characterized through ALP expression levels.
9-2. Creating the bone resorption environment through co-culture of osteoblasts and osteoclasts Under the same conditions as shown in Example 9-1, osteoclast differentiation profiles were characterized by […].

B1: Rankl (protein, UniProt O14788 140-317, looked up)
Tumor necrosis factor ligand …: IRAEKAMVDGSWLDLAKRSKLEAQPFAHLTINATDIPSGSHKVSLSSWYHDRGWAKISNMTFSNGKLIVNQDGFYYLYANICFRHHETSGDLATEYLQLMVYVTKTSIKIPSSHTLMKGGSTKYWSGNSEFHFYSINVGGFFKLRSGEEISIEVSNPSLLDPDQDATYFGAFKVRDID
notes: 100 ng/ml of Rankl added to growth media
For B1, the “expression of osteoblast differentiation marker ALP” value (MC3T3-E1 cells) was “little expression”, the “expression of osteoclast differentiation marker ACP” value (MC3T3-E1 cells) was “little expression” and the “expression of osteoclast differentiation factor ACP” value (RAW264.7 cells) was “increased”. For the same molecule, the “ALP expression (osteoblast differentiation)” value ([1]; combined treatment compared with osteoblast factor only) was “trace amount” and the “ACP expression (osteoclast differentiation)” value ([1]; day 3 and day 7, combined treatment compared with osteoclast factor only) was “increased”.
